Laboratory results: the supplement of paper PMC10567573

B1: CHCHD6 (parent)
chain: MYKLSSEQFHEAASKMESTIKPRR
B2: ZNF263 (parent)
chain: EKPYKCPECGEIFAHSSNLLRHQR

Variants of: B1
Experiment: protein stability index of a GFP-peptide fusion (GPS, HEK-293T) (PSI 1-6); higher = more stable
Settings: c terminus: a fixed tail appended
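Further: lentivirally expressed fusions sorted by FACS into six bins by GFP to DsRed ratio, PSI derived from sequencing read proportions per bin multiplied by bin number.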

Protein stability index: each site, then its substitutions
S18: W 2.98 | Y 3.42
T19: A 3.78 | C 3.67 | D 3.49 | E 3.89 | F 3.63 | G 3.76 | H 4.29 | I 3.12 | K 3.77 | L 3.67 | M 3.72 | N 4 | P 3.68 | Q 4.09 | R 3.88 | S 3.82 | V 3.82 | W 2.15 | Y 3.4
I20: A 4.38 | C 4.01 | D 4.22 | E 4.74 | F 3.51 | G 4.3 | H 3.95 | K 4.05 | L 3.23 | M 4.21 | N 3.56 | P 4.56 | Q 3.82 | R 3.97 | S 4.21 | T 4.25 | V 4.08 | W 3.07 | Y 3.44
K21: A 3.49 | C 4.22 | D 3.69 | E 4.33 | F 3 | G 3.5 | H 3.86 | I 3.44 | L 3.04 | M 3.09 | N 3.89 | P 4.13 | Q 3.22 | R 3.9 | S 3.68 | T 3.31 | V 3.61 | W 2.48 | Y 2.33
P22: A 3.46 | C 4.05 | D 4.26 | E 3.93 | F 3 | G 3.56 | H 3.91 | I 3.53 | K 3.8 | L 3.92 | M 3.86 | N 3.46 | Q 3.86 | R 3.83 | S 4.03 | T 4.09 | V 3.6 | W 2.58 | Y 3
R23: A 3.99 | C 3.48 | D 4.44 | E 4.14 | F 3 | G 3.59 | H 3.96 | I 3.05 | K 4.11 | L 2.91 | M 3.65 | N 3.4 | P 3.78 | Q 3.12 | S 3.7 | T 3.31 | V 3.16 | W 2.54 | Y 3.44
R24: A 3.91 | C 3.1 | D 4.2 | E 3.74 | F 3.06 | G 3.39 | H 3.85 | I 2.86 | K 3.86 | L 3.31 | M 3.86 | N 4.18 | P 3.7 | Q 3.65 | S 4.11 | T 4.12 | V 3.06 | W 2.56 | Y 3.15

Variants of: B2
Experiment: as above
Settings: c terminus: a fixed tail appended

Protein stability index: each site, then its substitutions
E1: A 1.55 | C 1.85 | D 2.94 | F 2.13 | G 1.99 | H 2.75 | I 2.33 | K 1.83 | L 2.53 | M 2.37 | N 2.31 | P 2.2 | Q 3.43 | R 2.9 | S 2.44 | T 2.65 | V 2.45 | W 1.76 | Y 2.06
K2: C 3.25 | D 3.24 | E 3.09 | F 3.99 | H 3.36 | I 1.68 | M 2.59 | P 3.37 | Q 2.89 | R 2.64 | T 3.05 | V 3 | W 2.32 | Y 3.34
P3: A 2.29 | C 2.1 | D 3.11 | E 2.91 | F 2.69 | H 1.88 | I 1.82 | K 1.52 | L 2.57 | M 2.78 | N 1.39 | Q 1.78 | R 1.89 | S 2.09 | T 2.85 | V 2.13 | W 2.83 | Y 3.04
Y4: C 2.48 | E 2.99 | F 2.15 | G 2.85 | I 2.76 | K 2.73 | L 2.47 | M 1.84 | N 2.45 | P 2.12 | Q 3.06 | R 2.48 | S 2.52 | T 2.91 | V 3.51 | W 2.29
K5: A 2.91 | C 1.52 | D 2.24 | E 3.02 | F 2.66 | G 2.31 | H 2.38 | I 3.39 | L 2.39 | N 2.5 | P 2.55 | Q 3.12 | R 2.61 | S 2.64 | T 3.41 | V 2.62 | W 2.46 | Y 2.2
C6: A 3.37 | D 3.49 | E 3.76 | F 3.46 | H 2.71 | I 3.23 | K 3.03 | L 3.19 | N 3.74 | P 3.76 | Q 3.6 | R 3.08 | S 2.88 | T 3.45 | V 3.35 | W 2.47 | Y 3.05
P7: A 2.24 | C 1.67 | D 3.71 | E 2.85 | F 2.37 | G 2.14 | H 2.25 | I 2.28 | K 1.49 | L 2.33 | M 2.49 | N 2.21 | Q 2.46 | R 1.62 | S 2.8 | T 1.82 | V 2.68 | W 2.29 | Y 2.7
E8: A 2.51 | C 3.16 | D 3.18 | F 2 | H 3.07 | I 2.04 | K 3.12 | L 2.37 | M 1.95 | N 2.1 | P 2.74 | Q 1.71 | R 2.85 | S 2.28 | T 2.74 | V 2.27 | W 1.88 | Y 2.86
C9: A 3.62 | D 3.74 | E 4.06 | F 2.71 | G 3.84 | H 2.56 | I 2.72 | K 3.5 | L 2.93 | M 3.83 | N 3.48 | P 3.86 | Q 4.07 | R 3.73 | S 3.72 | T 3.02 | V 2.92 | W 2.34 | Y 3.45
G10: A 1.88 | C 1.94 | D 2.98 | F 2.03 | H 2.59 | I 1.79 | K 2.31 | L 1.74 | M 1.91 | N 1.58 | P 2.82 | Q 1.84 | R 2.37 | S 2.12 | T 1.92 | V 1.78 | W 2.14 | Y 1.69
E11: A 2.03 | C 2.25 | D 2.38 | F 1.79 | G 1.98 | H 1.89 | I 2.19 | K 3 | L 1.76 | M 1.72 | N 1.73 | P 1.85 | Q 2.68 | R 3.09 | S 1.13 | T 2.1 | V 1.64 | W 2.42 | Y 3.05
I12: A 2.29 | C 1.26 | D 2.22 | E 2.94 | F 1.82 | G 1.17 | H 1.57 | K 1.12 | L 3.66 | M 2.04 | N 1.83 | P 1.73 | Q 3.23 | S 2.98 | V 1.7 | W 2.23 | Y 3.01
F13: C 3.01 | D 3.37 | G 2.35 | H 4.03 | I 2.8 | K 2.55
